Measurements: patent US20170129959A1
One block for each binder: values may come before it.

Experiments:
[1] = target: Recombinant hCD127 (Sino Biologicals, reference 10975-H08H) (human) (UniProt P16871); assay: ELISA, recombinant hCD127 coated on plastic at 1 µg/ml, antibody titrated; printed as ED 50
[2] = target: Recombinant CD127 Fc Chimera (10975-H03H, Sino Biological) (human) (UniProt P16871); assay: SPR (Biacore 3000), CD127Fc immobilised on CM5 chip, antibody injected, Bivalent analyte model
Sequence of Recombinant CD127 Fc Chimera (10975-H03H, Sino Biological) (human) (P16871 21-239 I66T/V138I limits assumed): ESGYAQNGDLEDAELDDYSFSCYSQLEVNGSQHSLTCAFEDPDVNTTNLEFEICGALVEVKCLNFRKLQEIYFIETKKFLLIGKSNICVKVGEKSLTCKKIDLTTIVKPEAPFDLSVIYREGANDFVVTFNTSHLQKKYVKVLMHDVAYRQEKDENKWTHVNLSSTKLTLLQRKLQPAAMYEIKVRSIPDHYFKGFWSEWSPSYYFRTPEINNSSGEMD

[3] = target: Recombinant hCD127 (Sino Biologicals, reference 10975-H08H) (human) (UniProt P16871); assay: ELISA on immobilised recombinant hCD127
[4] = target: Human CD127 (IL-7 receptor alpha chain) expressed on cells (human) (UniProt P16871); assay: cell-based or functional assay
Sequence of Human CD127 (IL-7 receptor alpha chain) expressed on cells (human) (P16871 21-459 I66T/V138I): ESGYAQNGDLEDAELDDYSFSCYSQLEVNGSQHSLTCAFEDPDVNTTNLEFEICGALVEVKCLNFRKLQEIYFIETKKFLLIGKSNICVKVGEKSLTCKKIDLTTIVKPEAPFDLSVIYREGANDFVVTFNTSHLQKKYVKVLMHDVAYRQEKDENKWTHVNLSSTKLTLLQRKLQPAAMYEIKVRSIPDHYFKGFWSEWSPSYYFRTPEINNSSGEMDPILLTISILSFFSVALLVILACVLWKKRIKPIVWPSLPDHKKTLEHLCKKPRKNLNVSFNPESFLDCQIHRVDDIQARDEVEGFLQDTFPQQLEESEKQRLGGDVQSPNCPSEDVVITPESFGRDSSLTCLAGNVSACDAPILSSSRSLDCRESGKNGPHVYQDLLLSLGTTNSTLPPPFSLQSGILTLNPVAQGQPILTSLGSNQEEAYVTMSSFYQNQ

Sequence of Recombinant hCD127 (Sino Biologicals, reference 10975-H08H) (human) (P16871 21-239 I66T/V138I limits assumed): as the sequence (P16871 21-239 I66T/V138I limits assumed) above

- EC50 [1]: 0.123 µg/mL
- Ka [2]: 2.19e+09 M⁻¹
- Kd [2]: 0.456 nM
- koff [2]: 0.000121 s⁻¹
- kon [2]: 266000 M⁻¹ s⁻¹
- EC50 (read off the curve) [3]: 0.1 µg/mL
B1: MD707-1 (rat anti-human CD127 antibody, previous generation) (antibody, from another filing, V domains shown)
VH: AVHLVESGGGLVQPKESLKISCAASGFTFSNAAMFWVRQAPGKGLEWVARIRTKANNYATYYADSVKGRFTISRDDSKSMVYLQMDNVKTDDTAMYYCIVVVLTTTRDYFDYWGQGVMVTVSS
VL: DIVLTQAPLSVSVTPGESASISCRSSQSLLTVKGITSLYWFLQKPGKSPQLLMYRMSNLASGVPDRFRGSGSETDFTLKISKVETEDVGVYYCAQFLEYPHTFGAGTKLELKR

- inhibition of IL-7 induced pSTAT5+ T lymphocytes (% inhibition at 1000 ng/mL) [4]: 50
B2: MD707-13 (anti-human CD127 antibody, WO2013/056984) (antibody, from another filing, V domains shown)
VH: QLKESGPGLVQPSQTLSLTCTVSGLSLPNNNIAWIRQSPGKGLEWMGVIWSNGDTDYNSAIRSRLSISRDSSKSQVFLRMNSLQSEDTAMYFCAREGMTTLDYWGQGVVVTVSS
VL: EIVLTQSPTTMAASPGEKVTITCRASSSVSYMHWFQQKSGSSPKPWIYDSSDLASGVPDRFSGSGSGTSYSLTISSMEAEDAATYYCLQRSSYPRTFGGGTKLELKR
